According to article PMC11582362 (Nature Communications, 2023):

Assays:
[1] = target: the molecule itself; experiment: SEC-SAXS; BioSEC-3 column, 15 °C, 0.3 mL/min, 20 mM Na-HEPES pH 7.3, 55 mM KOAc, 10 mM NaCl, 1 mM TCEP; purification tags cleaved off; SWING beamline, SOLEIL
[2] = target: the molecule itself; experiment: SEC-MALS; SEC-MALLS, BioSEC-3 column, 25 °C, 0.4 mL/min, 20 mM Na-phosphate pH 7.0, 100 mM NaCl, 2 mM 2-mercaptoethanol; His6-tag kept

Protein | stoichiometry N [1] | stoichiometry N [2]
ADAR1-dsRBD3 dsRBD3-long construct (residues 688-817) (domain or fragment, human, UniProt P55265 688-817, looked up, human ADAR1, third dsRBD with flanking regions, residues 688-817 (Uniprot entry P55265); Modified pET28a with TEV site; source: E. coli BL21(DE3) Codon-plus (RIL), purified (Ni-NTA, TEV cleavage, SEC); not shown: His6, N-terminal, cleaved) MASDNQPEGMISESLDNLESMMPNKVRKIGELVRYLNTNPVGGLLEYARSHGFAAEFKLVDQSGPPHEPKFVYQAKVGGRWFPAVCAHSKKQGKQEAADAALRVLIGENEKAERMGFTEVTPVTGASLRR | 2 | 
ADAR1-dsRBD3 dsRBD3-mid construct (residues 708-801), tag cleaved (domain or fragment, human, UniProt P55265 708-801, looked up, human ADAR1, third dsRBD, residues 708-801 (Uniprot entry P55265); Modified pET28a with TEV site; also called dsRBD-mid; source: E. coli BL21(DE3) Codon-plus (RIL), purified (Ni-NTA, TEV cleavage, SEC); not shown: His6, N-terminal, cleaved) MMPNKVRKIGELVRYLNTNPVGGLLEYARSHGFAAEFKLVDQSGPPHEPKFVYQAKVGGRWFPAVCAHSKKQGKQEAADAALRVLIGENEKAER | 2 | 
ADAR1-dsRBD3 (residues 708-801) with uncleavable His6-tag, wild type (domain or fragment, human, UniProt P55265 708-801, looked up, human ADAR1, third dsRBD, residues 708-801 (Uniprot entry P55265); pET28a between NdeI and XhoI; also called wild-type ADAR1-dsRBD3; source: E. coli BL21(DE3) Codon-plus (RIL), purified (Ni-NTA, SEC); not shown: His6, N-terminal, kept) MMPNKVRKIGELVRYLNTNPVGGLLEYARSHGFAAEFKLVDQSGPPHEPKFVYQAKVGGRWFPAVCAHSKKQGKQEAADAALRVLIGENEKAER |  | 2
ADAR1-dsRBD3 dsRBD3-short construct (residues 716-797) (domain or fragment, human, UniProt P55265 716-797, looked up, human ADAR1, folded part of the third dsRBD, residues 716-797 (Uniprot entry P55265); Modified pET28a with TEV site; also called dsRBD-short; ADAR1-dsRBD3 (crystal structures); source: E. coli BL21(DE3) Codon-plus (RIL), purified (Ni-NTA, TEV cleavage, SEC); not shown: His6, N-terminal, cleaved) IGELVRYLNTNPVGGLLEYARSHGFAAEFKLVDQSGPPHEPKFVYQAKVGGRWFPAVCAHSKKQGKQEAADAALRVLIGENE | 2 | 
